Holding throughout (test): SPR, KD relative to WT C2;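 also: biacore SPR at 37 °C, anti-C2 mAbs captured via immobilised goat anti-human IgG, C2 alanine or serine surface mutants as analytes, 1:1 model fitted, double-referenced sensograms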
A general note: Surface plasmon resonance follows binding to a sensor surface in real time, without labels.

For one experiment, the target named is T1, human C2 K721A (human, UniProt P06681 21-752).
T1 sequence: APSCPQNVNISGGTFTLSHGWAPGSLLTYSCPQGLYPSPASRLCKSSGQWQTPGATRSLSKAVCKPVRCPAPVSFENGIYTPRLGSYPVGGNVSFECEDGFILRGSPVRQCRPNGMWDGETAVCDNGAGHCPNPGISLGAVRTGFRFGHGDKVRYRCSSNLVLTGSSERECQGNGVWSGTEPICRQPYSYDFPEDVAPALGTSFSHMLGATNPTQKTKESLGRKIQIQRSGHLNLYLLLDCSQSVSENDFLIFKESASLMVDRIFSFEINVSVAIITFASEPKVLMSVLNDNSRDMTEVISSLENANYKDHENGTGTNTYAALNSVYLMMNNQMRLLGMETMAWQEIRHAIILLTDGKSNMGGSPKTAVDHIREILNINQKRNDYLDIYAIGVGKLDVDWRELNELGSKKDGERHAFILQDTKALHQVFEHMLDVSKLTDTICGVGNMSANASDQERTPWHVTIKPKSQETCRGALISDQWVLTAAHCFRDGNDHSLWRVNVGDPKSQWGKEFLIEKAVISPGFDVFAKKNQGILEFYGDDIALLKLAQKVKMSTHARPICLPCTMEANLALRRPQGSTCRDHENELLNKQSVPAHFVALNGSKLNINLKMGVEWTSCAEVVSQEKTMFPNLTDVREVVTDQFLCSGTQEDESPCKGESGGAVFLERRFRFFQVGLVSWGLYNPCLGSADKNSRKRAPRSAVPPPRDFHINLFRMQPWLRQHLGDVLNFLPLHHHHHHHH

The target in another experiment is T2, human C2 K415A (human, UniProt P06681 21-752).
T2 sequence: T1 sequence with K395A, A701K

The target in a further experiment is T3, human C2 E532A (human, UniProt P06681 21-752).
T3 sequence: T1 sequence with E512A, A701K

The next experiment has as its target T4, human C2 K676S (human, UniProt P06681 21-752).
T4 sequence: T1 sequence with K656S, A701K

Where a chain is given by its changes, count along the chain named.

B1: RF16-226 (antibody, human IgG4 S228P, lambda)
heavy: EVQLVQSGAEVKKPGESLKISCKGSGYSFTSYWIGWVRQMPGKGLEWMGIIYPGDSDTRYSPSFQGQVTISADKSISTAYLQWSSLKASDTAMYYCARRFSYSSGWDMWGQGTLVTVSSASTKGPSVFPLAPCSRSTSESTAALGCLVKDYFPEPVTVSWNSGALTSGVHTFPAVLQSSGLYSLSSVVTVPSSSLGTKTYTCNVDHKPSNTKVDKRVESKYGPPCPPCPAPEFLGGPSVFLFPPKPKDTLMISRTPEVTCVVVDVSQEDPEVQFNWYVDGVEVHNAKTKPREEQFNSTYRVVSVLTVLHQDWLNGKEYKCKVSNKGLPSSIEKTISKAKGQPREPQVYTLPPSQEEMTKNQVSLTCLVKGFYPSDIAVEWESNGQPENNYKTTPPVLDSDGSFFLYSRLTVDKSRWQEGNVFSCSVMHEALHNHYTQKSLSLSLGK
light: SYELTQPPSVSVSPGQTARITCSGDALTSKYVAWYQQKSGLAPLLVIYEDTRRPSGIPAKFSGSSSGSVATLTISGAHGDDEADYYCYSTDASGHQRVFGGGTKLTVLSQPKAAPSVTLFPPSSEELQANKATLVCLISDFYPGAVTVAWKADGSPVKAGVETTKPSKQSNNKYAASSYLSLTPEQWKSHRSYSCQVTHEGSTVEKTVAPTECS
notes: pH-dependent anti-C2 antibody from a phage display library; also called WT
For the molecule B1, the Fold diff came out at 10 fold with human C2 K721A, 1 fold with human C2 K415A, 2 fold with human C2 E532A and 2 fold in the experiment with human C2 K676S.

For the origin of these results see patent publication US20220332804A1 (CSL INNOVATION, published 2022).
